{"source": "paper PMC11761707", "about": "(Proceedings of the National Academy of Sciences of the …, 2025)", "proteins": {"B1": {"name": "Nmar_1354, multicopper oxidase (MCO4 lineage) from Nitrosopumilus maritimus (enzyme)", "chain": "DSSDTFPKFKNPNPQTLSYTLIAQDAEIEVSPGVRAKVWTYNGTVPAPTLRFSEGDDVTVKFVNDTPYAHTIHFHGTHDSANDGVFPMIMPGEEYTYHFVAEEAGLFMYHCHAFPTSEHVRMGMFGTMIIDPAIRPMDPAREYFFTLSEFDPNNALEHFTEFYPINGYAGQYMDNPIRVVSGELTRFYVVGIGGVLQSPFHVHSTIMKVYPSGILWNEPYYAQTHLIGNGDTAIIEATWTQPGMYLFHVHGIQEERGSMAMIEVLEDASSLSDVQRPSNNKGSYSMVEWQEDLIRTLEQPQLISYENLGESAAISSEKVSADKVSIVKDSWNPEITESYDPIAIQVDSGTTVTWTNDDSVVHTVTDNENSFDSGFIQAGNTWSYSFDNPGEFDYICTLHPWMKGTISVN"}}, "target": "the molecule itself", "assay": "crystal structure", "data": [{"protein": "B1", "values": [{"measurement": "stoichiometry N", "value": 3}]}]}
